Data as given in article PMC6470140 (Nature Communications, 2019).

Molecular target: synthetic peptide representing residues 620-635 of the BDBV GP2 stalk epitope (Bundibugyo virus)
Assay: crystal structure
Conditions: both partners purified

B1: BDBV223 Fab (Fab, V domains shown)
VH: QVQLQQWGAGLLKPSETLSLTCAVYGGSFTTTYWNWIRQPPGKGLEWIGEVNYSGNANYNPSLKGRVAISVDTSKNQFSLRLNSVTAADTAIYYCTSRIRSHIAYSWKGDVWGKGTTVTVSS
VL: EIVMTQSPGTLSLSPGERATLSCRASQSVPRNYIGWFQQKPGQAPRLLIYGASSRAAGFPDRFSGSGSGTDFTLTITRLEPEDFAMYYCHQYDRLPYTFGQGTKLEIK
**Q.** Does B1 bind?
**A.** binds
